From publication PMC7895871 (Protein & Cell, 2020)

Target: the molecule itself
Test: cryo-EM structure; human MCU-EMRE-MICU1-MICU2 supercomplex co-expressed in HEK 293F, pulled down by C-terminally Strep-tagged EMRE; Titan Krios, K2; overall map 3.3–3.7 Å

B1: MCU (mitochondrial calcium uniporter), subunit of the human MCU-EMRE-MICU1-MICU2 supercomplex (MEMMS) (natural protein)
chain: DDVTVVYQNGLPVISVRLPSRRERCQFTLKPISDSVGVFLRQLQEEDRGIDRVAIYSPDGVRVAASTGIDLLLLDDFKLVINDLTYHVRPPKRDLLSHENAATLNDVKTLVQQLYTTLCIEQHQLNKERELIERLEDLKEQLAPLEKVRIEISRKAEKRTTLVLWGGLAYMATQFGILARLTWWEYSWDIMEPVTYFITYGSAMAMYAYFVMTRQEYVYPEARDRQYLLFFHKGAKKSRFDLEKYNQLKDAIAQAEMDLKRLRDPLQVHLPLRQIG
notes: MCU, human; pore-forming subunit with NTD, CCD and TMD; Four MCU subunits form one channel (tetramer); the supercomplex holds two such tetramers joined at the NTDs; Construct limits and any tags are in the supplementary Methods; source: HEK 293F cells transfected by BacMam viruses, co-expressed; complex pulled down by the C-terminally Strep-tagged EMRE
stoichiometry N: 4
